Results as given in paper PMC2190570.
Values joined by “and” are separate entries in the source; they are usually repeats but may differ in a detail not shown here. Equal values may be shown once.

Key:
[1] = molecular target: lamin B1Δrod mutant (human) (UniProt P20700); experiment: cross-linking
[2] = molecular target: lamin B1Δrod mutant (human) (UniProt P20700); experiment: binding to an immobilised lamin matrix with urea step elution
[3] = molecular target: wild-type lamin B1 (human) (UniProt P20700); experiment: as above
[4] = molecular target: T1, wild-type lamin B1 (human), P20700; experiment: cross-linking; conditions: remark: other sources report otherwise
T1 chain: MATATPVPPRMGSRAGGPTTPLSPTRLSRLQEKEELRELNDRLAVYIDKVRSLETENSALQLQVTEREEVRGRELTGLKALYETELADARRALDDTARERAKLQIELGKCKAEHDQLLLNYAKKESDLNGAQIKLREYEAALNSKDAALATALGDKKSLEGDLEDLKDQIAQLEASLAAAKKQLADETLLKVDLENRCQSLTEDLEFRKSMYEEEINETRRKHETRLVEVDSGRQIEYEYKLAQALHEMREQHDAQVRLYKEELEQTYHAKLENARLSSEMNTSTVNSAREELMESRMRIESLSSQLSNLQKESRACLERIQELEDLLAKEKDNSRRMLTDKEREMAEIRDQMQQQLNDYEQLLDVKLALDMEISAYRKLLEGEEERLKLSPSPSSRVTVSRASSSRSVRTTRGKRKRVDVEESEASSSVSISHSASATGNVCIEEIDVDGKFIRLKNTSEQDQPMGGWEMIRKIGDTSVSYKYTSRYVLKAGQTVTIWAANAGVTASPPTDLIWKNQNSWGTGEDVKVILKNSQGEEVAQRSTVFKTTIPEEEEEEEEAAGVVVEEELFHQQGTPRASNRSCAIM

[5] = molecular target: T1, wild-type lamin B1 (human), P20700; experiment: binding to an immobilised lamin matrix with urea step elution; conditions: remark: other sources report otherwise

Molecule: lamin B1Δrod mutant (from UniProt P20700 1-69; P20700 340-586) (natural protein)
- stoichiometry N [1]: 2

Molecule: wild-type lamin B1 (from UniProt P20700 1-586) (natural protein)
- urea concentration at which most protein eluted [2]: 4 M and 7 M

Molecule: lamin C (from UniProt P02545-2 1-572) (natural protein)
- urea concentration at which elution began [2]: 0.5 M
- urea concentration at which the majority eluted [2]: 2 to 3 M
- urea concentration at which elution began [3]: 3 M
- urea concentration at which the majority eluted [3]: 5 to 7 M

Molecule: lamin A (from UniProt P02545 1-646) (natural protein)
- urea concentration at which the majority eluted [2]: 2 M and 4 M
- urea concentration at which the majority eluted [3]: 7 M

B1: wild-type lamin B1, P20700 1-586 (natural protein)
chain: MATATPVPPRMGSRAGGPTTPLSPTRLSRLQEKEELRELNDRLAVYIDKVRSLETENSALQLQVTEREEVRGRELTGLKALYETELADARRALDDTARERAKLQIELGKCKAEHDQLLLNYAKKESDLNGAQIKLREYEAALNSKDAALATALGDKKSLEGDLEDLKDQIAQLEASLAAAKKQLADETLLKVDLENRCQSLTEDLEFRKSMYEEEINETRRKHETRLVEVDSGRQIEYEYKLAQALHEMREQHDAQVRLYKEELEQTYHAKLENARLSSEMNTSTVNSAREELMESRMRIESLSSQLSNLQKESRACLERIQELEDLLAKEKDNSRRMLTDKEREMAEIRDQMQQQLNDYEQLLDVKLALDMEISAYRKLLEGEEERLKLSPSPSSRVTVSRASSSRSVRTTRGKRKRVDVEESEASSSVSISHSASATGNVCIEEIDVDGKFIRLKNTSEQDQPMGGWEMIRKIGDTSVSYKYTSRYVLKAGQTVTIWAANAGVTASPPTDLIWKNQNSWGTGEDVKVILKNSQGEEVAQRSTVFKTTIPEEEEEEEEAAGVVVEEELFHQQGTPRASNRSCAIM
- stoichiometry N [4]: 2
- urea concentration at which most protein eluted [5]: 7 M and 4 M
